Measured values from patent publication US20180155451A1 (published 2018).

B1: GpH7-A5/GpH7-B3 variant S337_06M/GpL16-k0 (antibody, human IgG1, kappa)
heavy 1: not shown
heavy 2: not shown
light: DIVMTQSPLSLPVTPGEPASISCQASESLVHSNRNTYLHWYLQKPGQSPQLLIYKVSNRFSGVPDRFSGSGSGTDFTLKISRVEAEDVGVYYCSQNTHVPPTFGQGTKVEIERTVAAPSVFIFPPSDEQLKSGTASVVCLLNNFYPREAKVQWKVDNALQSGNSQESVTEQDSKDSTYSLSSTLTLSKADYEKHKVYACEVTHQGLSSPVTKSFNRGEC
notes: mutation in one H chain only; also called He Ab S337_06M; S337M
B2: GpH7-A5/GpH7-B3 variant S337_19Q/GpL16-k0 (antibody, human IgG1, kappa)
heavy 1: not shown
heavy 2: not shown
light: B1 light
notes: mutation in one H chain only; also called He Ab S337_19Q; S337Q
B3: GpH7-A5/GpH7-B3 variant S324_12R/GpL16-k0 (antibody, human IgG1, kappa)
heavy 1: not shown
heavy 2: not shown
light: B1 light
notes: mutation in one H chain only; also called He Ab S324_12R; S324R
B4: GpH7-A5/GpH7-B3 variant T335_04F/GpL16-k0 (antibody, human IgG1, kappa)
heavy 1: not shown
heavy 2: not shown
light: B1 light
notes: mutation in one H chain only; also called He Ab T335_04F; T335F
B5: GpH7-A5/GpH7-B3 variant S337_10E/GpL16-k0 (antibody, human IgG1, kappa)
heavy 1: not shown
heavy 2: not shown
light: B1 light
notes: mutation in one H chain only; also called He Ab S337_10E; S337E
B6: GpH7-A5/GpH7-B3 variant T335_07I/GpL16-k0 (antibody, human IgG1, kappa)
heavy 1: not shown
heavy 2: not shown
light: B1 light
notes: mutation in one H chain only; also called He Ab T335_07I; T335I
B7: GpH7-A5/GpH7-B3 variant S337_03V/GpL16-k0 (antibody, human IgG1, kappa)
heavy 1: not shown
heavy 2: not shown
light: B1 light
notes: mutation in one H chain only; also called He Ab S337_03V; S337V
B8: GpH7-A5/GpH7-B3 variant T335_05P/GpL16-k0 (antibody, human IgG1, kappa)
heavy 1: not shown
heavy 2: not shown
light: B1 light
notes: mutation in one H chain only; also called He Ab T335_05P; T335P
B9: GpH7-A5/GpH7-B3 variant S337_07I/GpL16-k0 (antibody, human IgG1, kappa)
heavy 1: not shown
heavy 2: not shown
light: B1 light
notes: mutation in one H chain only; also called He Ab S337_07I; S337I
B10: GpH7-A5/GpH7-B3 variant S324_08L/GpL16-k0 (antibody, human IgG1, kappa)
heavy 1: not shown
heavy 2: not shown
light: B1 light
notes: mutation in one H chain only; also called He Ab S324_08L; S324L
B11: GpH7-A5/GpH7-B3 variant S337_12R/GpL16-k0 (antibody, human IgG1, kappa)
heavy 1: not shown
heavy 2: not shown
light: B1 light
notes: mutation in one H chain only; also called He Ab S337_12R; S337R
B12: GpH7-A5/GpH7-B3 variant Y300_12R/GpL16-k0 (antibody, human IgG1, kappa)
heavy 1: not shown
heavy 2: not shown
light: B1 light
notes: mutation in one H chain only; also called He Ab Y300_12R; Y300R
B13: GpH7-A5/GpH7-B3 variant T335_15Y/GpL16-k0 (antibody, human IgG1, kappa)
heavy 1: not shown
heavy 2: not shown
light: B1 light
notes: mutation in one H chain only; also called He Ab T335_15Y; T335Y
B14: GpH7-A5/GpH7-B3 variant V266_19Q/GpL16-k0 (antibody, human IgG1, kappa)
heavy 1: not shown
heavy 2: not shown
light: B1 light
notes: mutation in one H chain only; also called He Ab V266_19Q; V266Q
B15: GpH7-A5/GpH7-B3 variant S324_20W/GpL16-k0 (antibody, human IgG1, kappa)
heavy 1: not shown
heavy 2: not shown
light: B1 light
notes: mutation in one H chain only; also called He Ab S324_20W; S324W
B16: GpH7-A5/GpH7-B3 variant T335_09D/GpL16-k0 (antibody, human IgG1, kappa)
heavy 1: not shown
heavy 2: not shown
light: B1 light
notes: mutation in one H chain only; also called He Ab T335_09D; T335D
B17: GpH7-A5/GpH7-B3 variant S324_18N/GpL16-k0 (antibody, human IgG1, kappa)
heavy 1: not shown
heavy 2: not shown
light: B1 light
notes: mutation in one H chain only; also called He Ab S324_18N; S324N
B18: GpH7-A5/GpH7-B3 variant S337_09D/GpL16-k0 (antibody, human IgG1, kappa)
heavy 1: not shown
heavy 2: not shown
light: B1 light
notes: mutation in one H chain only; also called He Ab S337_09D; S337D
B19: GpH7-A5/GpH7-B3 variant S337_02A/GpL16-k0 (antibody, human IgG1, kappa)
heavy 1: not shown
heavy 2: not shown
light: B1 light
notes: mutation in one H chain only; also called He Ab S337_02A; S337A
B20: GpH7-A5/GpH7-B3 variant T335_06M/GpL16-k0 (antibody, human IgG1, kappa)
heavy 1: not shown
heavy 2: not shown
light: B1 light
notes: mutation in one H chain only; also called He Ab T335_06M; T335M
B21: GpH7-A5/GpH7-B3 variant S298_20W/GpL16-k0 (antibody, human IgG1, kappa)
heavy 1: not shown
heavy 2: not shown
light: B1 light
notes: mutation in one H chain only; also called He Ab S298_20W; S298W
B22: GpH7-A5/GpH7-B3 variant S337_15Y/GpL16-k0 (antibody, human IgG1, kappa)
heavy 1: not shown
heavy 2: not shown
light: B1 light
notes: mutation in one H chain only; also called He Ab S337_15Y; S337Y
B23: GpH7-A5/GpH7-B3 variant S324_19Q/GpL16-k0 (antibody, human IgG1, kappa)
heavy 1: not shown
heavy 2: not shown
light: B1 light
notes: mutation in one H chain only; also called He Ab S324_19Q; S324Q
B24: GpH7-A5/GpH7-B3 variant T335_12R/GpL16-k0 (antibody, human IgG1, kappa)
heavy 1: not shown
heavy 2: not shown
light: B1 light
notes: mutation in one H chain only; also called He Ab T335_12R; T335R
B25: GpH7-A5/GpH7-B3 variant S337_04F/GpL16-k0 (antibody, human IgG1, kappa)
heavy 1: not shown
heavy 2: not shown
light: B1 light
notes: mutation in one H chain only; also called He Ab S337_04F; S337F
B26: GpH7-A5/GpH7-B3 variant S324_11K/GpL16-k0 (antibody, human IgG1, kappa)
heavy 1: not shown
heavy 2: not shown
light: B1 light
notes: mutation in one H chain only; also called He Ab S324_11K; S324K
B27: GpH7-A5/GpH7-B3 variant S324_16H/GpL16-k0 (antibody, human IgG1, kappa)
heavy 1: not shown
heavy 2: not shown
light: B1 light
notes: mutation in one H chain only; also called He Ab S324_16H; S324H
B28: GpH7-A5/GpH7-B3 variant S324_03V/GpL16-k0 (antibody, human IgG1, kappa)
heavy 1: not shown
heavy 2: not shown
light: B1 light
notes: mutation in one H chain only; also called He Ab S324_03V; S324V
B29: GpH7-A5/GpH7-B3 variant S324_14T/GpL16-k0 (antibody, human IgG1, kappa)
heavy 1: not shown
heavy 2: not shown
light: B1 light
notes: mutation in one H chain only; also called He Ab S324_14T; S324T

These binders were tested against T1, FcγRIa extracellular domain with C-terminal His tag (human, UniProt P12314 16-292) (assay: SPR Biacore, relative FcγRIa binding vs GpH7-A5/GpH7-B3/GpL16-k0).
T1 construct: extracellular domain; also called FcgRI; CD64; not shown: His tag at the C terminus
T1 sequence (P12314 16-292): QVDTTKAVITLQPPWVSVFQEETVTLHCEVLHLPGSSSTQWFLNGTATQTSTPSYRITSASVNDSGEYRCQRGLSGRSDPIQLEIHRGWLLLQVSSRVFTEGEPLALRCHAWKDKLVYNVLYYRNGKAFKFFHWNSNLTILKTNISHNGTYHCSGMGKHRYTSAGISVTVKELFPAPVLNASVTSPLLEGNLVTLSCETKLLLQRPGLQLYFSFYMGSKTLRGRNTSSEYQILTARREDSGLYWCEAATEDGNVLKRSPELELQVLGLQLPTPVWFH

He/Con_1a	Binder
107 % of HeCon Ab (=100)	B1
105 % of HeCon Ab (=100)	B2
102 % of HeCon Ab (=100)	B3
105 % of HeCon Ab (=100)	B4
106 % of HeCon Ab (=100)	B5
109 % of HeCon Ab (=100)	B6
107 % of HeCon Ab (=100)	B7
106 % of HeCon Ab (=100)	B8
105 % of HeCon Ab (=100)	B9
103 % of HeCon Ab (=100)	B10
106 % of HeCon Ab (=100)	B11
105 % of HeCon Ab (=100)	B12
107 % of HeCon Ab (=100)	B13
100 % of HeCon Ab (=100)	B14
114 % of HeCon Ab (=100)	B15
108 % of HeCon Ab (=100)	B16
116 % of HeCon Ab (=100)	B17
106 % of HeCon Ab (=100)	B18
106 % of HeCon Ab (=100)	B19
107 % of HeCon Ab (=100)	B20
104 % of HeCon Ab (=100)	B21
104 % of HeCon Ab (=100)	B22
112 % of HeCon Ab (=100)	B23
113 % of HeCon Ab (=100)	B24
106 % of HeCon Ab (=100)	B25
102 % of HeCon Ab (=100)	B26
113 % of HeCon Ab (=100)	B27
104 % of HeCon Ab (=100)	B28
121 % of HeCon Ab (=100)	B29
